Paper doi:10.1101/773556
Read-outs that look alike come from different tables or passages of the source.

Tests used:
Experiment in all cases: ITC
[1] = biological target: EF-Tu methyltransferase EftM from P. aeruginosa strain PAHM4 (EftM^HM4), wild-type (Pseudomonas aeruginosa strain PAHM4)
[2] = biological target: EftM^HM4 W170F (Pseudomonas aeruginosa strain PAHM4)
[3] = biological target: EF-Tu methyltransferase EftM from P. aeruginosa strain PAHM4 (EftM^HM4), wild-type (Pseudomonas aeruginosa strain PAHM4); remark: listed apart in the source
[4] = biological target: EftM^HM4 W196F (Pseudomonas aeruginosa strain PAHM4)

Substance: translation elongation factor EF-Tu of P. aeruginosa PAO1 (tufB), wild-type (from UniProt P09591 1-397) (natural protein)
- Kd [1]: 27 µM
- fold decrease of dH against wild-type EftM^HM4 [2]: > 10 fold
- Kd [3]: 28 µM
- fold decrease of dH against wild-type EftM^HM4 [4]: > 10 fold
